According to article PMC6814260 (Chembiochem : a European journal of chemical biology, 2019):

Target: the molecule itself

B1: XoxF, lanthanide-dependent methanol dehydrogenase from Methylobacterium extorquens AM1 (enzyme, UniProt C5B120 22-601, looked up)
chain: NESVLKGVANPAEQVLQTVDYANTRYSKLDQINASNVKNLQVAWTFSTGVLRGHEGSPLVVGNIMYVHTPFPNIVYALDLDQGAKIVWKYEPKQDPSVIPVMCCDTVNRGLAYADGAILLHQADTTLVSLDAKSGKVNWSVKNGDPSKGETNTATVLPVKDKVIVGISGGEFGVQCHVTAYDLKSGKKVWRGYSIGPDDQLIVDPEKTTSLGKPIGKDSSLKTWEGDQWKTGGGCTWGWFSYDPKLDLMYYGSGNPSTWNPKQRPGDNKWSMTIWARNPDTGMAKWVYQMTPHDEWDFDGINEMILTDQKFDGKDRPLLTHFDRNGFGYTLDRATGEVLVAEKFDPVVNWATKVDLDKGSKTYGRPLVVSKYSTEQNGEDVNSKGICPAALGTKDQQPAAFSPKTGLFYVPTNHVCMDYEPFRVTYTPGQPYVGATLSMYPAPGSHGGMGNFIAWDNLQGKIKWSNPEQFSAWGGALATAGDVVFYGTLEGFLKAVDSKTGKELYKFKTPSGIIGNVMTYEHKGKQHVAVLSGVGGWAGIGLAAGLTDPNAGLGAVGGYAALSSYTNLGGQLTVFSLPNN
Q: Which “stoichiometry N” value does the source give for B1 here?
A: 2
